15 substances from article PMC11282955 can be followed below.

As a reminder, the Kd is the free concentration of one partner at which half of the binding sites on the other are occupied at equilibrium, for simple one-to-one binding.

The target in the assay is human angiotensin-converting enzyme 2 (hACE2) (UniProt Q9BYF1). The experiment in a line: SPR. The settings on record: parent: est. 1.5 nM; read off a plot.
As to “BA.2.86 spike receptor-binding domain (RBD) P486F”, the Kd stood at 0.39 nM.

Consider “BA.2.86 spike receptor-binding domain (RBD) K481N”, for which the Kd worked out at 0.66 nM.

With “BA.2.86 spike receptor-binding domain (RBD) H505Y”, the Kd was found to be 0.58 nM.

As to “BA.2.86 spike receptor-binding domain (RBD) H445V”, the Kd amounted to 0.46 nM.

Turning to “BA.2.86 spike receptor-binding domain (RBD) W452L”, the Kd is 0.58 nM.

On to “BA.2.86 spike receptor-binding domain (RBD) L455F; F456L”, for which the Kd was 0.8 nM.

In the case of “BA.2.86 spike receptor-binding domain (RBD) ins483V”, the Kd worked out at 0.88 nM.

Take “BA.2.86 spike receptor-binding domain (RBD) D450N”: the equilibrium dissociation constant (Kd) came to 0.52 nM.

For “BA.2.86 spike receptor-binding domain (RBD) N417K; H505Y”, the Kd turned out to be 0.27 nM.

Regarding “BA.2.86 spike receptor-binding domain (RBD) N417K; H505Y; L455F; F456L”, the Kd amounted to 0.53 nM.

On to “BA.2.86 spike receptor-binding domain (RBD) K484A”, for which the Kd is 1.2 nM.

Consider “BA.2.86 spike receptor-binding domain (RBD) N417K”, for which the Kd stood at 0.62 nM.

For the substance “BA.2.86 spike receptor-binding domain (RBD) K403R”, the Kd was found to be 1 nM.

Take “BA.2.86 spike receptor-binding domain (RBD) N354Q”: the Kd is 1.6 nM.

Consider “BA.2.86 spike receptor-binding domain (RBD) L455S”, for which the Kd was 4.3 nM.
